Data published in patent US20150344565A1.
pEC50, pKd: −log10 of the molar value. “And” between values parts separate entries of the source, which are not always exact repeats. Equal values may be shown once.

Key:
[1] = biological target: Glycosylated recombinant human GM-CSF expressed from human 293 cells (human) (UniProt P04141); experiment: SPR (Biacore 3000) at 37 °C, antibody captured on anti-human F(ab')2, GM-CSF as analyte, 1:1 global fit
[2] = biological target: Non-glycosylated recombinant human GM-CSF expressed in E. coli (human) (UniProt P04141); experiment: ELISA on GM-CSF-coated wells, non-glycosylated GM-CSF, exp 2
[3] = biological target: Non-glycosylated recombinant human GM-CSF expressed in E. coli (human) (UniProt P04141); experiment: ELISA on GM-CSF-coated wells, non-glycosylated GM-CSF, exp 1
[4] = biological target: Non-glycosylated recombinant human GM-CSF expressed in E. coli (human) (UniProt P04141); experiment: cell-based or functional assay
[5] = biological target: Glycosylated recombinant human GM-CSF expressed from human 293 cells (human) (UniProt P04141); experiment: ELISA on GM-CSF-coated wells, glycosylated GM-CSF, exp 1

Substance: Ab2, chimeric IgG1k antibody having variable regions from the mouse antibody LMM102
- pKd [1]: 10.52
- koff [1]: 2.2e-05 s⁻¹
- kon [1]: 720000 M⁻¹ s⁻¹
- pEC50 [2]: 9.36
- pEC50 [3]: 9.40
- IC50 for inhibition of GM-CSF induced IL-8 expression (U937 cells), experiment C [4]: 2.2 nM and 343 ng/ml
- pEC50 [5]: 9.41
